The text below walks through data of patent EP2107116A2.

The target of one assay is p97 (melanotransferrin) (UniProt P08582). Put plainly: p97-coated plate, scFv-BLA culture broth, bound BLA activity (nitrocefin, 490 nm); ratio T1 (1 h dissociation)/T0 of mutant over parent; pH 6.5.
Chain of UniProt P08582 (P08582 20-709 limits assumed): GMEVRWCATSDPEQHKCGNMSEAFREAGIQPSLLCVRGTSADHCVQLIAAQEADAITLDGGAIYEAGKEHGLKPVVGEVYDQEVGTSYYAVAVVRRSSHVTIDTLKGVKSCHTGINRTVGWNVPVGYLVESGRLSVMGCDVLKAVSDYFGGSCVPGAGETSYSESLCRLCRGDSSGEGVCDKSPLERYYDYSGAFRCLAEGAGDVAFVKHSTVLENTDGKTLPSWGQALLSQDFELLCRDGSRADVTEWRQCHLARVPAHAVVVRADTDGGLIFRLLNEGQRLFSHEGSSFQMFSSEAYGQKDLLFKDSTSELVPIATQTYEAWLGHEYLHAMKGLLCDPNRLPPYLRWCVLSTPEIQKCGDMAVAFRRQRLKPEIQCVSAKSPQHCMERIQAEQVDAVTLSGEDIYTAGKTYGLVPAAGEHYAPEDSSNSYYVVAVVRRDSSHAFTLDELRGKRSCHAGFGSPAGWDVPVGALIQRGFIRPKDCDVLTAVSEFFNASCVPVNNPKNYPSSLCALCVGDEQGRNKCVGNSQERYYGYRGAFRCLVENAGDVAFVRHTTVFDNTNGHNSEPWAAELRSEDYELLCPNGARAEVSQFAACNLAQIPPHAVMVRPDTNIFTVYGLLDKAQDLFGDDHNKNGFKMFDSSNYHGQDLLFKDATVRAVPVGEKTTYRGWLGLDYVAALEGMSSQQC
“ME43 (SGN-17 scFv-BLA, heavy chain K64 to His)”: the Index pH6.5 worked out at 0.65.

As to “ME46 (SGN-17 scFv-BLA, heavy chain T99 to His)”, the Index pH6.5 came to 0.09.

Regarding “ME48 (SGN-17 scFv-BLA, heavy chain A101 to His)”, the Index pH6.5 was found to be 0.33.

As to “ME53 (SGN-17 scFv-BLA, heavy chain M106 to His)”, the Index pH6.5 was 0.8.

In the case of “ME54 (SGN-17 scFv-BLA, heavy chain D107 to His)”, the Index pH6.5 is 0.7.

In the case of “ME55 (SGN-17 scFv-BLA, heavy chain Y108 to His)”, the Index pH6.5 amounted to 0.7.

As to “ME56 (SGN-17 scFv-BLA, heavy chain W109 to His)”, the Index pH6.5 came to 0.41.

Take “ME58 (SGN-17 scFv-BLA, light chain R58 to His)”: the Index pH6.5 stood at 0.76.

“ME60 (SGN-17 scFv-BLA, light chain S95 to His)”: the Index pH6.5 was found to be 1.09.

Consider “ME61 (SGN-17 scFv-BLA, light chain T96 to His)”, for which the Index pH6.5 turned out to be 0.81.

With “ME66 (SGN-17 scFv-BLA, light chain T101 to His)”, the Index pH6.5 worked out at 1.73.

The next assay has the same target. The assay is described as follows: p97-coated plate, scFv-BLA culture broth, bound BLA activity (nitrocefin, 490 nm); ratio T1 (1 h dissociation)/T0 of mutant over parent; pH 7.4.
“ME43 (SGN-17 scFv-BLA, heavy chain K64 to His)”: the Index pH7.4 stood at 0.61.

In the case of “ME44 (SGN-17 scFv-BLA, heavy chain R97 to His)”, the Index pH7.4 amounted to 0.24.

Take “ME46 (SGN-17 scFv-BLA, heavy chain T99 to His)”: the Index pH7.4 was 0.38.

For “ME47 (SGN-17 scFv-BLA, heavy chain L100 to His)”, the Index pH7.4 is 0.24.

As to “ME48 (SGN-17 scFv-BLA, heavy chain A101 to His)”, the Index pH7.4 was determined as 0.49.

With “ME50 (SGN-17 scFv-BLA, heavy chain Y103 to His)”, the Index pH7.4 worked out at 0.33.

As to “ME51 (SGN-17 scFv-BLA, heavy chain Y104 to His)”, the Index pH7.4 was 0.26.

As for “ME53 (SGN-17 scFv-BLA, heavy chain M106 to His)”, the Index pH7.4 came to 0.97.

For “ME54 (SGN-17 scFv-BLA, heavy chain D107 to His)”, the Index pH7.4 was 0.41.

Regarding “ME55 (SGN-17 scFv-BLA, heavy chain Y108 to His)”, the Index pH7.4 is 0.8.

For “ME56 (SGN-17 scFv-BLA, heavy chain W109 to His)”, the Index pH7.4 stood at 0.57.

With “ME58 (SGN-17 scFv-BLA, light chain R58 to His)”, the Index pH7.4 is 0.92.

Regarding “ME59 (SGN-17 scFv-BLA, light chain Q94 to His)”, the Index pH7.4 turned out to be 0.28.

Turning to “ME60 (SGN-17 scFv-BLA, light chain S95 to His)”, the Index pH7.4 amounted to 1.04.

On to “ME61 (SGN-17 scFv-BLA, light chain T96 to His)”, for which the Index pH7.4 came out at 0.82.

Turning to “ME63 (SGN-17 scFv-BLA, light chain V98 to His)”, the Index pH7.4 is 0.21.

In the case of “ME64 (SGN-17 scFv-BLA, light chain P99 to His)”, the Index pH7.4 worked out at 0.35.

As to “ME66 (SGN-17 scFv-BLA, light chain T101 to His)”, the Index pH7.4 turned out to be 1.36.
